In this data set the target is MaMADS36 (Musa spp. (banana), UniProt A0ACE1XRG1 54-288). Description: EMSA; Not given in material; EMSA according to Liu et al. [22]. As to conditions: protein: recombinant; chain copies: 2.
Chain of MaMADS36 (A0ACE1XRG1 entry or part of it): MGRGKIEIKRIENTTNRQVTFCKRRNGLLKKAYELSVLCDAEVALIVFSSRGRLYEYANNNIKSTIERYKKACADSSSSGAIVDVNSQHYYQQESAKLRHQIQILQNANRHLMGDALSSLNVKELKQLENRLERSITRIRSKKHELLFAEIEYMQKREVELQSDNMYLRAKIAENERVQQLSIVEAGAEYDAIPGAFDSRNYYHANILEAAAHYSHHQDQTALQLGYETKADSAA

B1: MaACS7 promoter C(A/T)rG probe (dsDNA)
DNA 1: GTTTCTTTTTTGGT
DNA 2: ACCAAAAAAGAAAC
For B1, the binding result is given as “binds”.

Source of the values: paper PMC11878764, “MaEIL4-MaMADS36-MaACS7 module transcriptionally regulates ethylene biosynthesis during banana fruit ripening”.
